# Data reported in the domain aggregation screens of Martell et al. (2025).
# Assay: soluble fraction after stress (log2 fold change); higher = more stays soluble; pooled small domains, quantitative proteomics
# Settings: stress: 50 degC
# In short: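 Custom libraries of small protein domains were pooled and measured in a high-throughput format, with quantitative proteomics as the read-out. Each library was stressed at 50°C. The value is the log2 fold change in the amount of each protein that stays soluble after stress, used as a measure of aggregation propensity; higher values mean more of the protein stays soluble.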
row,Sequence,soluble fraction (log2)
1,HMGEDPYQMLGLTRQASDEEVRLAWRKLMRENHPDSLASRGVPQEFVKRATEQVAQINAAWDRIKRERG,0.0386
2,HMKPSKYTLAIDSIPVHVTRKQMKSIRLRVTPLGEVRVSAPYGVKDSEIVEMVRSRKLWIESQQRA,-0.992
3,HMNLWIDNTQVINDWTEGASERSGSIYLTAGVKPIKMQYFDSVLNAKAILRWQGPGINKSVVPSSALTPG,-0.855
4,HMPSEDELAERLRGAIRQGDILNEGRMPPERALAEHFGVSRARLRLALGLLQEDGTIYRRHGQGTFAT,-0.132
5,HMEDISLYKILRAHSIDNLKLSQWIIDSLKTKFSTIGELQDAKIDDIRMYRIQDVRIEKIKNAVTEYMA,-0.926
6,HMEQVKFFDAKVITTPPNRLKTRYTPAGNLRPEADWLQSGAIVPVYETSGAGWYRIGYQTWASAEWMQRLD,-0.934
7,HMGQAVTVPELKGLSFDEAIEKLDDAGLKYEVVDSNYVEDMKPGTVFETLPEAGSRVKPRRIVFLTINAF,-0.319
8,HMIAAVIAQVANTNERIILEKRYLSFKSWDEIAVEMRISPRWAYTLHERALKAVDQVLSKQNNE,-4.07
9,HMGKDTLKLKKNAIPYDENGKKLTNLGYSYIKKTTVLNYYGTKIINGSTYYFLGDGVYIKAANVGTTSH,-2.23
10,HMDYARYGLSEKEAELIELIAQGMNNKEISAEIYLSEGTVRNYISELLEKLELRDRTQLAVYYYTHR,-2.71
11,HMKAQLQHIIGSNIKLARNTQGYTQEGLAERAEISVEHLKQVERGKKMLSVESLVNVANALQVSVDSLV,0.0587
12,HMSRMGDSIKSLRSRNNMSQDALAEKLNVTRQAISNWENSKTQPDADTLKNLGIIFNVTVDEIINNDF,0.0528
13,HMIYGNGVTDLKDLANGATIIIPADDSNETRALFLLQQEGLIKLPDDADAAKGVSTLDIVDGGGWVTSM,0.0431
14,HMHRAKRTKAQTQSSLESIEGIGPKTRKQLLVHFGGLAEVKAASVSELQKVKGISLDKAQKIYDFFHGS,0.00473
15,HMGSNTLEDAYKVLGITPDATDDEVRKAYKKMVIQHHPDKVANLGEDVKKAATIKLQEINNAKEIIFKARN,0.139
16,HMEFDFGAILSGNGGSELYSGYSAEQKAALVEAAKADGMDVEFGADGSTTFKDKDGSEVVQKADGTWTV,0.18
17,HMDVQTVTVIENVNVRKSASENGQKLGLAYTGEKLELLMKQADGWTRVKYNGETAYVKSDYV,-0.00354
18,HMDETFTITFDPNGGTLNGSKTKTVSLGDIVYGKLPTASKTGYSFIGWFTEKEGGEQISSATKIIASDLTL,0.0253
19,HMHAPKIIVLTINPDKIRDVIGPGGKMIKSIVAATGVKMDVEDDGKIHISSSDQKAADEAIRMINEITAEA,0.0184
20,HMALKSYEDMVGKTGVAYTVLRPSGKVIINDELFDATARSGMIEKGNEVIIYDYKNAQLIVEK,0.0774
21,HMNEAMIMIDLKGKSRDEAVKELDELNLKYRFTGNGIVKDQKPKAGEEINSDTVVEVELSEIK,0.114
22,HMAPFSGVEPREWDSLVERGRQSGEVHAEDVTHVLRHVELTGDVLTDVQSKMAEHGITIDDA,0.206
23,HMRGQLADLWLPREQARRAAEIVAARPVPLGSVKTWIARGKLAPRKTGTGPALYRVGALVSLLAKS,-1.67
24,HMGVARGQAQVTTRQHVVQPGETLYQISKQYGVTVAEILRYNADIEDNTVKVGQTLQIPTPLP,≥ 0.62
25,HMLQESDPEALRGIVKSVLVDHAAVAEEYRAGKQSVLQFLVGQGMKASKGAGNPGLIRDLMLEEL,-0.00903
26,HMQVSIGERVKLARMSAGLNQRQLGKEMGMSAMAISKYETGEVVPNSRVLIQLSQTLHVPLDFFFRS,-2.69

row,Sequence,soluble fraction (log2)
1,HMTASVTDAMFELIDELPKLGKTSFRQLTADLVDRLQVVVTFLAVLELYKQGHVELDQSERFGDITVVWTG,-0.0255
2,HMSEIYVDDINRKILYLLSQGIKTKSLLEHIPLSMSGIEKRKKQLKMLFSVEDGKDETLLEMAKEKGF,-1.45
3,HMVETVQVVGAGQDIMPGSRINYSSLHYITVPRSYFHEDMFAKNNLVVGRIARAYVAKGEPLLAASLMPK,-2.54
4,HMNRPYETLFTGLTTDEASAIVGKLEEYGAADYKIEGDTIKVPAAQEPDLKAKLLLDGYPKS,0.105
5,HMNNDIDRVFAELTVLSQKKGYLVFDDIEKGTEDLSVNEVDWLTNRLLTSGVEIFDDVPDTIK,-0.205
6,HMKIDEVSFAYIERTLFSMLGKLPTPVNKVIATIGEEKKETIWEVIRFLESENKLITNEDGTLQL,-1.55
7,HMANKQLQEKLKNYISENGSLSSAAKAIGLSPATLSTYLKDKYEGNVANVETRLTEIFETVEAANNLL,-0.258
8,HMNQIDEATAATITTLNFLNTNSEFKIPVGDTATRPGTPAIGMMRFNSENDKAEIYVADFDGDGNPGWINL,-0.189
9,HMTEFWTGPITTVTKANFADWTLDTNQDRITANVWLTRADSKGLFNITPGKETAFDIVDYLSPLDTEWA,-0.188
10,HMLPDLQESIDELLNIVDQRLNTSFEELVSGVNTTEKAIAFFLALLETIKWGFIKAEQTNNENKINIEKNY,0.0699
11,HMDVLKMKVEDLNIGSRTVNSLTAAKIKTVAGLIKKSKESLLELDGMGNKGVEEIILALKKLGLEL,0.0186
12,HMKIVQHQLQLPVHVAGKFKGMFYKSDFVMSEDYDDDGNMILAVRLPLVDWNKFLKRTDNELSQYIKVTP,-0.858
13,HMQEGPGLVPDFRGQTMREVLRGGQSLGVRVAVDGTGLAVAQTPEPGSPLNKVSQVTVSFRPP,0.0873
14,HMVEEVDYGTFMRMIEEKNIGKVEVRAGEIVFTDKDEKQIYKTGAMEDATLTQRLYESGAEFSKDV,0.0146
15,HMSEITMMQMEIPEGHNWENRLVKDVSMPTGSLAVMIKRHGETLIPGGDTRILAGDTIVLSVPAYESG,-0.0716
16,HMTPQGALDYSRNAKYLRDQVTAINYLKQARLSLNTTDANYRQTLEQINQAIAKHNQALQQAGVQSQQLAT,0.0556
17,HMKKKVDSENLLLDILKQMQPQASTNVLRKMLTNQRISVDDQIIHRAKHVVQEGQTVEIHPKP,0.00763
18,HMAFEITSAERTRLEDIARKGLTAYTAEWKQLPASEKKALNKTGLQDFLKSMAADADSAREEEA,0.0772
19,HMWSQEPEYRPLYNSMDGFDAGQVVEMLQQSRIDYKVEPNSGALLVRSEDLADARLRLASAGISP,-0.0156
20,HMSKYERVYTGSEINVNHLKSQLEDAGISSVVRNDHESAIRAGFGSDYDRGVLLFVEKDNLLRAKHIIEKT,0.0318
21,HMPTKSDLLQWIKDRASKMGGAFTNSGAYALADAGVDGPRALSSEINKLLTYVNWERSVEADDVIRL,-0.13
22,HMHSRTWTSADGVKTFEGELQSYDAASGKVSVILPNHKRITFKQEKLSADDIAWLEKNGNRP,0.102
23,HMTQPAEINRLVEQMGSSDYKSRQEAYERLHQMGPGILDLIYPYRNHADPEIQTRVRELILSYRW,0.264
24,HMEKAYVWTDTRTFDVQNYIGKKKSEVKNDQYGFEFLGEGDYVIDQLPRVGEQIEEGQKVKIMLGNQQEI,0.0468
25,HMVPDGFDQLTEREYQVAMAVGKGLNNKEIASQLGLGERTVKAHLTTTFEKLHVRDRVQLALIVNRL,-0.556
26,HMAPLATLEAGEDGSVKLPNLAGHSIREVAAALGGAKLSLIPIGSGTSWKQTPAPGAVLHSGDTVTVYF,0.142

row,Sequence,soluble fraction (log2)
1,HMNIGEKIKTLRENNNISIEELAEKINDSIENILKYENNELEPTLDKKLALSIALGVTLSDLS,-0.114
2,HMLAKYEIIKQDIIQMIEEKKFKPGDKIYSEGELKKIYNVSSTTVVRALQDLVLSGYLIRKQGEGTYVRK,-1.23
3,HMVITPESVKEQVLAIISKSPAQGFNYKQISKRLNINDPSERKMVSDILRELSESGTIEEINKGKYRAKV,-0.0556
4,HMPVEQVWHIAEAGKTKGPFSRASMGRMSADGALTRDTLVWTAGQDGWKKAADVTALATLFT,-0.0223
5,HMLSVNREQVEQSLKQEWGFDYDKNLRAAQRAIDVYGDDDLKLLLNGPTGNDPAIVKLFARLGGEVTEE,-0.00909
6,HMSEKAQSENEDLIKILALLIHAAKIDENYSEKEKKLIISFAEMSSNKKLDREQINSLVDKAEQYEK,-0.17
7,HMAPTADSVPFVIRSVVGGAQPFIVLEDGSKLLVGGVYRKYRLVAVENTRIIFEGPRTAIVT,-1.33
8,HMGLNLIGLKRSGFAPEEVKAMTRAYMYIFKSAEGNFESRLAKAHEKYKDDALIMEMVEFIDDALKG,-0.906
9,HMDKIYVYTTRGQVIELPRGSTAIDFAYKIQTDIGNMIIAAIVNDKLVDANYVLHNKDRVKIVTS,-1.92
10,HMRSKTDLVYEEIKKLILRGELSSDTPISENHLARRFEISRTPIREALKRLHIEGFVRIIPNHGVFVR,-0.343
11,HMSNIIIYPNPTNDGLIHIKGSKFPFNYALYNLSGKLIETGKKNQIQLNDRGVYLLKIQTEGQTYFKKII,0.272
12,HMKVNIGDQVYNQMKDQIMSGVWVPGEKIPSENQLMEVFGVSRGTVRQAIQKLSAVGLLETRRGEGSYVGQ,-0.115
13,HMGDGRVGVITASIAYEYAKEVFPEGTSFLKLGLTFPLPMDLIRDFASKVEKLYVIEELEPL,-0.215
14,HMEGLEKDDGGYYFEKDNGERARNEWVYVEYEGKGYWYYMTDYGYPLRSAITPDGYKVNSNGHWIDEGN,-0.825
15,HMEEKKYEVGDVVSFNYLYKNSFAEGKVSSLIHSGTITRIIDGRPAPYLINRGTGWLSNDLILT,-0.958
16,HMEYSYKLIDLLVDRFSEEGVDPEEAREYINLFHRFSQGLDPDKRDITKYSWDELYRTVNDKKDS,0.107
17,HMAPIEVPYNVFRQQVVEGNVESVATRADTVQGYFETPVTLPARPDAAAAEPVTVERFSTTLPSF,0.142
18,HMAVLEGPAGKLGIVRFEANRSFTGMGHERFSSADQAFGTKPAAVVASRLFATGQVAGVHVYGNIITVELA,0.528
19,HMKEDFPLLEQLRYTGEGADVTGTAEKMESIQALRSAADSGGFRATLGDIQQIPGGGLRFTLSLRGSR,0.0335
20,HMEQMSLISKKKGERIDKFLGENLGDLSRSYIQKLLKDGLILVNGKKVKANYKLNEGDQIDVEVPDP,0.303
21,HMTMSFSELLRGLRKSRGMSQAELATAVGLSQAQVSQIETGKLLPSPELIEKLAALYGIALGSA,-0.139
22,HMGEVVRAPMPGNVLKMEVAQGQEVEEGDLLLVLEAMKMENDIVAPKGGIVIQLVVDKGMVVETDDPLVVI,0.0323
23,HMASALDFGRYVRSQYSLQEFPLILIAPLNDPHPKEVVRELFNLYLTKPITRSRLFDSLMTVLG,-0.753
24,HMTLTLEQAAAIKNSEGEQYGKIESERLAAMSVQIDKAIKSNGHDPNKKADLERKLDAIGIILNARAAG,0.122
